Reference: PMC9927946

Target: 2P-IRS-1 (bisphosphorylated IRS-1 peptide), labeled with Cy5
Test: MST; Monolith NT.115; 100 nM Cy5-labeled 2P-IRS-1, unlabeled protein serially diluted; 25 °C; n=3

Row | Kd | Substance
1 | 473 µM | SHP2 WT recombinant protein (Src homology region 2-containing protein tyrosine phosphatase 2) (from UniProt Q06124 1-593) (enzyme)
2 | > 1000 µM | NEDD8-SHP2 conjugation (SHP2 neddylated in the in vitro neddylation assay) (from UniProt Q06124 1-593; Q15843 1-76) (complex)
